Measurements taken from patent US20250223358A1 (ANTENGENE BIOLOGICS, published 2025).
Where two headings read alike, the source gives them in different places.

Key:
human CD3 [1] = molecular target: T1, human CD3 (human, UniProt P07766 23-207; P04234 22-171; P09693 23-182); assay: FACS on Jurkat cells
T1 construct: whole, on cells; also called hCD3; CD3 on Jurkat cells

human CD3 [2] = molecular target: T1, human CD3; assay: cell-based or functional assay
human CD3 [3] = molecular target: T1, human CD3; assay: cell-based or functional assay; remark: listed apart in the source
human CD3 [4] = molecular target: T1, human CD3; assay: cell-based or functional assay; remark: listed apart in the source
human CD3 [5] = molecular target: T1, human CD3; assay: FACS on Jurkat cells; remark: listed apart in the source
human CD3 [6] = molecular target: T1, human CD3; assay: FACS on Jurkat cells; remark: listed apart in the source
human CD3 [7] = molecular target: T1, human CD3; assay: FACS on Jurkat cells; remark: listed apart in the source
cynomolgus CD3 [8] = molecular target: T2, cynomolgus CD3 (cynomolgus (Macaca fascicularis), UniProt Q95LI5 22-198; Q95LI8 22-171; Q95LI7 23-181); assay: FACS on 293T-cynoCD3mix cells
T2 construct: whole, on cells; composition of the 'mix' not defined; also called cynoCD3

cynomolgus CD3 [9] = molecular target: T2, cynomolgus CD3; assay: FACS on 293T-cynoCD3mix cells; remark: listed apart in the source
human CD3 [10] = molecular target: T1, human CD3; assay: FACS on HEK293T-hCD3mix cells; also: test concentration or dose not given here

T1 sequence (P07766 23-207, chain 1 of 3): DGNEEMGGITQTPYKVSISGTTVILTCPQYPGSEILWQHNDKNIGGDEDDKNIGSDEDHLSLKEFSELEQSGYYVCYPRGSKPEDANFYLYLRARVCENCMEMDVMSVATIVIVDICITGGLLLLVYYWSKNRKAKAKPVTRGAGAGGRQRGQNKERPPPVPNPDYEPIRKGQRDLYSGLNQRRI
T1 sequence (P04234 22-171, chain 2 of 3): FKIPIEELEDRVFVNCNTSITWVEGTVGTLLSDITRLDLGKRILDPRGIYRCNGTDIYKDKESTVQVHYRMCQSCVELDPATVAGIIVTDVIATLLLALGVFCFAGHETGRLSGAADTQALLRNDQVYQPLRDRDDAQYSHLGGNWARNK
T1 sequence (P09693 23-182, chain 3 of 3): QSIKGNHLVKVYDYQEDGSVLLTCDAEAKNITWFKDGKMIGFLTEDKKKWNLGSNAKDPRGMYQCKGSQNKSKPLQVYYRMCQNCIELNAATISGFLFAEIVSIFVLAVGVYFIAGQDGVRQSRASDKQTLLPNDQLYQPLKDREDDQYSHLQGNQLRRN
T2 sequence (Q95LI5 22-198, chain 1 of 3): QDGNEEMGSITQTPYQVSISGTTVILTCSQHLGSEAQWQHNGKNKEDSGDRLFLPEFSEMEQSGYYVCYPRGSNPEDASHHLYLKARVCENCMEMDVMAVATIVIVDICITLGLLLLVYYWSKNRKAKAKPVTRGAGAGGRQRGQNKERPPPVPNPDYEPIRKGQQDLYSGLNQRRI
T2 sequence (Q95LI8 22-171, chain 2 of 3): as the sequence (P04234 22-171, chain 2 of 3) above, with I5V, N15K, I20V, S32T, D33N, I34N, T64A, S74N, V83L, H141R counted along it
T2 sequence (Q95LI7 23-181, chain 3 of 3): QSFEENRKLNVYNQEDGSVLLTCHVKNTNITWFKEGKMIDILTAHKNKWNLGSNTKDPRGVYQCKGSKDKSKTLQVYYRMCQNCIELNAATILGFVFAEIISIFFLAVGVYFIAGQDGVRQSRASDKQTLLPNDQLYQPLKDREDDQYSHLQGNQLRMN

B1: BMK-TCB (antibody, V domains shown)
VH: not shown
VL: QAVVTQEPSLTVSPGGTVTLTCGSSTGAVTTSNYANWVQEKPGQAFRGLIGGTNKRAPGTPARFSGSLLGGKAALTLSGAQPEDEAEYYCALWYSNLWVFGGGTKLTVL
notes: benchmark anti-CD3 antibody; also called anti-CD3 antibody developed by Roche
Human CD3 [1]
  EC50: 1.6 nM
  Top FACS signal: 1740
Human CD3 [2]
  EC50_Fold change (Jurkat-NFAT-luciferase activation, normalized to ch40-C12-C10-E9; mean): 8.17 fold
  Top FACS signal_Fold change (Jurkat-NFAT-luciferase activation, normalized to ch40-C12-C10-E9; mean): 0.48 fold
Human CD3 [3]
  EC50_Fold change (Jurkat-NFAT-luciferase activation, normalized to ch147E11E2; mean): 2.24 fold
  Top FACS signal_Fold change (Jurkat-NFAT-luciferase activation, normalized to ch147E11E2; mean): 0.5 fold
Human CD3 [4]
  EC50 (Jurkat-NFAT-luciferase activation): 59.4 nM
  Top signal (Jurkat-NFAT-luciferase activation): 753
Human CD3 [5]
  EC50: 1.35 nM
  Top FACS signal: 2370
Human CD3 [6]
  EC50: 1.91 nM
  Top signal: 3140
Human CD3 [7]
  EC50: 1.3 nM
  Top FACS signal: 2570

B2: BMK-B219 (antibody, V domains shown)
VH: EVQLVESGGGLVQPGGSLRLSCAASGFTFNTYAMNWVRQAPGKGLEWVARIRSKYNNYATYYAASVKGRFTISRDDSKNSLYLQMNSLKTEDTAVYYCARHGNFGNSYVSWFAYWGQGTLVTVSS
VL: QTVVTQEPSLTVSPGGTVTLTCRSSTGAVTTSNYANWVQQKPGQAPRGLIGGTNKRAPGTPARFSGSLLGGKAALTLSGVQPEDEAEYYCALWYSNLWVFGGGTKLTVL
notes: benchmark anti-CD3 antibody; also called anti-CD3 antibody developed by JNJ (Johnson & Johnson)
Human CD3 [4]
  EC50 (Jurkat-NFAT-luciferase activation): 68.4 nM
  Top signal (Jurkat-NFAT-luciferase activation): 811
Human CD3 [6]
  EC50: 1.47 nM
  Top signal: 3000
Cynomolgus CD3 [8]
  EC50: 4.34 nM
  Top signal: 60000

B3: ch126A11A4 (antibody, V domains shown)
VH: QVQLQQPGTELVKPGASVKLSCKASGYTFTSYWMHWVKQRPEQGLEWIGNINPSNGDTNYNEKFKSKATLTVDKASNTAYMQLSSLTSEDSAVYYCGRDRSSQYYFDYWGQGTTLTVSS
VL: DIVMSQSPSSLAVSAGEKVTMSCKSSQSLLNSRTRKNYLAWYQQKPGQSPKLLIYWASTRESGVPDRFTGSGSGTDFTLTISSVQAEDLAVYFCKQSFILRTFGGGTKLEIK
Human CD3 [4]
  EC50 (Jurkat-NFAT-luciferase activation): 33.6 nM
  Top signal (Jurkat-NFAT-luciferase activation): 682
Human CD3 [6]
  EC50: 0.567 nM
  Top signal: 1760
Cynomolgus CD3 [8]
  EC50: 2.91 nM
  Top signal: 57000

B4: ch124E3D6 (antibody, V domains shown)
VH: QVQLQQPGTELVKPGASVKLSCKASGYTFTSYWMHWVKQRPGQGLEWIGNINPSNGDTNYNEKFKSKATLTVDKSSSTAYMQLSSLTSEDSAVYYCARDRSSQYYFDYWGQGTTLTVSS
VL: DIVMSQSPSSLAVSAGEKVTMSCKSSQSLLNSRTRKNYLAWYQQKPGQSPKLLIYWASTRESGVPDRFTGSGSGTDFTLTISSVQAEDLAVYYCKQSYNLRTFGGGTKLEIK
Human CD3 [4]
  EC50 (Jurkat-NFAT-luciferase activation): 32.4 nM
  Top signal (Jurkat-NFAT-luciferase activation): 482
Cynomolgus CD3 [8]
  EC50: 2.64 nM
  Top signal: 45800

B5: ch147C6F3 (antibody, V domains shown)
VH: QVQLQQPGTELVKPGASVKLSCKASGYTFDSYWMHWVKQRPGQGLEWIGNLNPSNGEINYNEKFKHKATLTVDKSSSTAYMQLSSLTSEDSAVYYCSRDRSSQYYFDYWGQGTTLTVSS
VL: DIVMSQSPSSLAVSAGEKVTLSCKSSQSLLNSRTRKNYLAWYQQKSGQSPKLLMYWASTRESGVPDRFTGSGSGTDFTLTITNVQAEDLAVYYCKQSYILRTFGGGTKLEIK
Human CD3 [4]
  EC50 (Jurkat-NFAT-luciferase activation): 57.4 nM
  Top signal (Jurkat-NFAT-luciferase activation): 428
Human CD3 [6]
  EC50: 1.77 nM
  Top signal: 2280
Cynomolgus CD3 [8]
  EC50: 4.15 nM
  Top signal: 55200

B6: ch147E11E2 (antibody, V domains shown)
VH: QVQLQQPGTELVKPGTSVKLSCKASGYTFTSYWMHWVKQRPGQGLEWIGNINPSNGATNYNEKFKSKATLTVDKSSSTAYMQLSSLTSEDSAVYYCARDRSSQYYFDYWGQGTTLTVSS
VL: DIVMSQSPSSLAVSAGEKVTMSCKSSQSLLNSRSRKNYLAWYQQKPGQSPKLLIYWASTRESGVPDRFTGSGSGTDFTLTISSVQAEDLAVYYCTQSYTLRTFGGGTKLEIK
Human CD3 [3]
  EC50_Fold change (Jurkat-NFAT-luciferase activation, normalized to ch147E11E2): 1 fold
  Top FACS signal_Fold change (Jurkat-NFAT-luciferase activation, normalized to ch147E11E2): 1 fold
Human CD3 [4]
  EC50 (Jurkat-NFAT-luciferase activation): 33 nM
  Top signal (Jurkat-NFAT-luciferase activation): 421
Cynomolgus CD3 [9]
  EC50: 1.23 nM
  Top signal: 17800
Human CD3 [5]
  EC50: 0.649 nM
  Top FACS signal: 2780
Human CD3 [6]
  EC50: 0.419 nM
  Top signal: 2780
Cynomolgus CD3 [8]
  EC50: 2.19 nM
  Top signal: 53900

B7: 16-F2-C11-D9 (antibody, V domains shown)
VH: EVQLQQSGPELVKPGASVKMSCKASGYTFTDFNIHWVKQSLGKSLEWIGYINPNDGGSTYNQKFKGKATLTINKSSSSAYMELRSLTSEDSAVYYCAIPFLDSWGQGTSVTVSS
VL: TLMMTQSPSSMYASLGERVTITCKASQDINSYLRWYQQKPGKSPKTLIYGASSLVDGVPSRFSGRGSGQDYSLTISSLEYEDMGIYYCLQYDEVPLTFGAGTKLELK
notes: mouse monoclonal (hybridoma) antibody
Human CD3 [10]
  FACS MFI: 80300 MFI

B8: 4-F12-F1-A4 (antibody, V domains shown)
VH: EVKLVESGGGLVKPGGSLKLSCAASGFTFSSYTMSWIRQTPAKRLEWVATISSGGGNTFYADSVKGRFTISRDNARNTLNLQMSSLRSEDTAMYYCARSLYYYDGTYVRKDYYAMDYWGQGSSVTVSS
VL: DIQMTQSPASLSVSVGETVTISCRASENIFSNLAWYQQKQGKSPQLLVYAATNLAEGVPSRFSGSRSGTQFSLKINSLQSEDFGSYYCQQFWGTPWTFGGGTKLEVK
notes: as for B7
Human CD3 [10]
  FACS MFI: 16800 MFI

B9: 20-E11-E11-C2 (antibody, V domains shown)
VH: EVQLQQSGPEVVKPGASVKISCKASGYTFTDYYMNWVKQSHGKNLEWIGDINPIHGGISSNQKFSDKATLTVDKSSNTAYLELRSLTSEDSAIYYCARRIYYGYDWYFDVWGTGTTVTVSS
VL: DIVLSQSPAIMSASPGERVTMTCSASSSVTSRYFFWYQQKPGSSPKLWIYSTSNLASGVPVRFSGSGSGTSYSLTINNMAAEDAATYYCQQYSTSPSTFGAGTKLELK
notes: as for B7
Human CD3 [10]
  FACS MFI: 55200 MFI

B10: hu147E2-L3H3 (antibody, V domains shown)
VH: EVQLVQSGAEVKKPGSSVKVSCKASGYTFTSYWMHWVRQAPGQGLEWMGNINPSNGATNYNEKFKSRVTLTVDKSTSTAYMELSSLRSEDTAVYYCARDRSSQYYFDYWGQGTTVTVSS
VL: DIQMTQSPSSLSASVGDRVTITCKSSQSLLNSRSRKNYLAWYQQKPGKAPKLLIYWASTRESGVPSRFSGSGSGTDFTLTISSLQPEDFATYYCTQSYTLRTFGGGTKVEIK
notes: humanized 147E11E2; also called hu14E2-L3H3
Human CD3 [3]
  EC50_Fold change (Jurkat-NFAT-luciferase activation, normalized to ch147E11E2): 1.36 fold
  Top FACS signal_Fold change (Jurkat-NFAT-luciferase activation, normalized to ch147E11E2): 0.68 fold
Cynomolgus CD3 [9]
  EC50: 1.63 nM
  Top signal: 19000
Human CD3 [5]
  EC50: 0.659 nM
  Top FACS signal: 2680

B11: hu147E2-L3H4 (antibody, V domains shown)
VH: EVQLVQSGAEVKKPGSSVKVSCKASGYTFTSYWMHWVRQAPGQGLEWIGNINPSNGATNYNEKFKSRATLTVDKSTSTAYMELSSLRSEDTAVYYCARDRSSQYYFDYWGQGTTVTVSS
VL: DIQMTQSPSSLSASVGDRVTITCKSSQSLLNSRSRKNYLAWYQQKPGKAPKLLIYWASTRESGVPSRFSGSGSGTDFTLTISSLQPEDFATYYCTQSYTLRTFGGGTKVEIK
notes: humanized 147E11E2; also called hu14E2-L3H4
Human CD3 [3]
  EC50_Fold change (Jurkat-NFAT-luciferase activation, normalized to ch147E11E2): 2.12 fold
  Top FACS signal_Fold change (Jurkat-NFAT-luciferase activation, normalized to ch147E11E2): 0.6 fold
Cynomolgus CD3 [9]
  EC50: 1.29 nM
  Top signal: 16100
Human CD3 [5]
  EC50: 0.671 nM
  Top FACS signal: 2680

B12: hu147E2-L3H2 (antibody, V domains shown)
VH: EVQLVQSGAEVKKPGSSVKVSCKASGYTFTSYWMHWVRQAPGQGLEWMGNINPSNGATNYNEKFKSRVTITADKSTSTAYMELSSLRSEDTAVYYCARDRSSQYYFDYWGQGTTVTVSS
VL: DIQMTQSPSSLSASVGDRVTITCKSSQSLLNSRSRKNYLAWYQQKPGKAPKLLIYWASTRESGVPSRFSGSGSGTDFTLTISSLQPEDFATYYCTQSYTLRTFGGGTKVEIK
notes: humanized 147E11E2; also called hu14E2-L3H2
Human CD3 [3]
  EC50_Fold change (Jurkat-NFAT-luciferase activation, normalized to ch147E11E2): 1.66 fold
  Top FACS signal_Fold change (Jurkat-NFAT-luciferase activation, normalized to ch147E11E2): 0.76 fold
Cynomolgus CD3 [9]
  EC50: 1.77 nM
  Top signal: 19200
Human CD3 [5]
  EC50: 0.891 nM
  Top FACS signal: 2730

B13: 8-B12-F9-B11 (antibody, V domains shown)
VH: EVQLVESGGGIVKPGGSRKLSCAASGFTFSDYGMHWVRQAPEKGLEWIAYISSASGKIYYADTVKGRFTISRDNAKNILFLQMTSLRSEDTAMYYCARVLRWSVNYVMDYWGQGTSVTVSS
VL: DIVMTQSPSSLAVSAGEKVTMNCESSQSVLYSSNQKNYLAWYQQKPGQSPKLLIYWASTRESGVPDRFTGTGSGTDFTLTISSVQAEDLAVYYCHQYLSSWTFGGGTKLEIK
notes: as for B7
Human CD3 [10]
  FACS MFI: 67100 MFI
